What was measured:
human TNF-alpha [1] = target: T1, human TNF-alpha (human, UniProt P01375 77-233); experiment: cell-based or functional assay
membrane bound TNF-alpha [2] = target: T2, membrane bound TNF-alpha; experiment: flow cytometry, mTNF-transfected Jurkat cells (geomean)
T2 construct: whole, on cells; also called mTNF; membrane expressed TNF-alpha
Method: (§1) All reagents were prepared in flow cytometry staining buffer (BioLegend). Membrane expressed TNF-alpha transfected cell lines (Jurkat and CHO) and parental cell lines were harvested from tissue culture vessels, washed, counted and resuspended to 1×10̂6 cells/ml in flow cytometry staining buffer. One hundred microliters of the cell suspension was added to 96 well microtiter plates and placed on ice. Titrations of test compounds were prepared and 50 uL was added to the cells. After sixty minute incubation on ice, the cell+test compounds were washed and 50 uL of a secondary antibody (Jackson ImmunoResearch) was added. The samples were incubated in the dark, at 4 C, for 60 minutes, followed by washes. After a final wash the cells were resuspended in 60 uL of fixative (BD Bioscience). Median fluorescence was determined for each sample in a flow cytometer and plotted versus the concentration of the test sample. EC₅₀ values were calculated using the 4 Parameter Logistic enabled by the Excel add-in XLfit (Activity Base software, ID Business Solutions, Ltd.).

human TNF-alpha [3] = target: T1, human TNF-alpha; experiment: cell-based or functional assay; remark: listed apart in the source
membrane bound TNF-alpha [4] = target: T2, membrane bound TNF-alpha; experiment: flow cytometry, mTNF-transfected CHO cells (geomean)
Method: as §1

recombinant human IL23 [5] = target: T3, recombinant human IL23 (human, UniProt P29460 23-328); experiment: cell-based or functional assay
T3 sequence 1: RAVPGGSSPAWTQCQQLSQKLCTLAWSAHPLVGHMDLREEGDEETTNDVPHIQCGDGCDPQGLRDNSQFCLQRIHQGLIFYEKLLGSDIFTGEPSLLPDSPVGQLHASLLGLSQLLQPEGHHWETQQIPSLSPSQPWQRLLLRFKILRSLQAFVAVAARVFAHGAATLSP
T3 sequence 2: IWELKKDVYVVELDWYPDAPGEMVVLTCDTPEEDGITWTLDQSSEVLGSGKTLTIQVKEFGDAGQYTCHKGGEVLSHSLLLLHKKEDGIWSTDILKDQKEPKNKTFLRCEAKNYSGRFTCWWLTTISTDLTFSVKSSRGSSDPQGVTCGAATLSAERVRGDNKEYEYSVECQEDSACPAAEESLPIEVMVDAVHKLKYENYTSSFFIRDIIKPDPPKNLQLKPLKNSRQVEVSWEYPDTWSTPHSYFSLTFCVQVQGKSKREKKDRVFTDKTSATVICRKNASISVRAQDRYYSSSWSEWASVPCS

human TNF-alpha [6] = target: T1, human TNF-alpha; experiment: cell-based or functional assay; remark: listed apart in the source
recombinant human IL23 [7] = target: T3, recombinant human IL23; experiment: cell-based or functional assay; remark: listed apart in the source
recombinant human IL23 [8] = target: T3, recombinant human IL23; experiment: cell-based or functional assay; remark: listed apart in the source
[9] = target: T4, recombinant cynomolgus IL23 (cynomolgus); experiment: cell-based or functional assay
T4 chain 1: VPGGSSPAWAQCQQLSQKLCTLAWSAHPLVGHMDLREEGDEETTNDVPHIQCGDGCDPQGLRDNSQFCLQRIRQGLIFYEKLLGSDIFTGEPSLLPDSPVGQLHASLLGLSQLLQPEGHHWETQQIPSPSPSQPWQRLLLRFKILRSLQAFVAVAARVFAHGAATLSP
T4 chain 2: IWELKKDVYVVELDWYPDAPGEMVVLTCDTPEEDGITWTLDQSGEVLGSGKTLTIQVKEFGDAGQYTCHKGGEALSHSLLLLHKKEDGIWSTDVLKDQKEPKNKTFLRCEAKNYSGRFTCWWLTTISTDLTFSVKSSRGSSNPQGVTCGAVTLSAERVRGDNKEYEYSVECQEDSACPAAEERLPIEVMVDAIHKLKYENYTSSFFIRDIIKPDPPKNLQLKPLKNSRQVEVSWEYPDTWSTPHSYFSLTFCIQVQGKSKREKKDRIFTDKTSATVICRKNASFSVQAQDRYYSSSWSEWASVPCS

recombinant human IL23 [10] = target: T3, recombinant human IL23; experiment: cell-based or functional assay; remark: listed apart in the source
human TNF-alpha [11] = target: T1, human TNF-alpha; experiment: cell-based or functional assay; remark: listed apart in the source
cynomolgus TNF-alpha = cynomolgus TNF-alpha (cynomolgus, UniProt P79337 77-233, limits assumed); experiment: cell-based or functional assay
cynomolgus TNF-alpha, sequence (P79337 77-233 limits assumed): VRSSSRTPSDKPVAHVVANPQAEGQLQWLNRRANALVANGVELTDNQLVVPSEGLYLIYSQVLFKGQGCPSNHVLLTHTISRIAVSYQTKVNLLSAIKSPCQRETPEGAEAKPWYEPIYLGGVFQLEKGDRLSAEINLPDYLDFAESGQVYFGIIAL

human TNF-alpha [12] = target: T1, human TNF-alpha; experiment: SPR (ProteOn XPR36), compound captured on goat anti-human IgG Fc, antigen injected
Method: (§2) SPR experiments were performed on a ProteOn XPR36 instrument (Bio Rad). A GLM chip was preconditioned with sequential injections of 60 sec of 0.5% SDS, 50 mM NaOH, and 100 mM HCl at a flow rate of 30 μl/min both vertical and horizontal directions. […] Goat-anti-human IgG (GAHA) Fc gamma (Invitrogen) at a concentration of 30 μg/ml in 10 mM, pH 5.0 sodium acetate buffer was immobilized to 8,000 resonance units on the activated GLM chip in 6 horizontal channels. The chip was finally deactivated with 1 M ethanolamine HCl in 6 horizontal channels. The prepared GAHA chip was rotated to vertical direction to capture test compounds, over 5 vertical channels and the last channel was used as a column reference. The captured chip was then rotated again to the horizontal direction for binding. […] The dissociation was allowed for 2 hour. […] The regenerated GAHA was ready for another binding cycle.

recombinant human IL23 [13] = target: T3, recombinant human IL23; experiment: cell-based or functional assay; remark: listed apart in the source
Linked human IL-23 = target: T5, Linked human IL-23 (human, UniProt P29460 23-328); experiment: SPR (ProteOn XPR36), compound captured on goat anti-human IgG Fc, linked human IL-23 injected at 0.625-10 nM
T5 construct: Printed as 'Linked human IL-23 (Boehringer Ingelheim Pharmaceuticals, Inc)' in the SPR method
T5 sequence 1: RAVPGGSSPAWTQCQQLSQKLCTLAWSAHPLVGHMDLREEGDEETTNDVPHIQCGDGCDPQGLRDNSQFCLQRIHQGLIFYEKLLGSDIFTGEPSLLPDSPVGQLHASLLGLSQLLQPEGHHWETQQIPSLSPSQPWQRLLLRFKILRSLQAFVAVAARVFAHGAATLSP
T5 sequence 2: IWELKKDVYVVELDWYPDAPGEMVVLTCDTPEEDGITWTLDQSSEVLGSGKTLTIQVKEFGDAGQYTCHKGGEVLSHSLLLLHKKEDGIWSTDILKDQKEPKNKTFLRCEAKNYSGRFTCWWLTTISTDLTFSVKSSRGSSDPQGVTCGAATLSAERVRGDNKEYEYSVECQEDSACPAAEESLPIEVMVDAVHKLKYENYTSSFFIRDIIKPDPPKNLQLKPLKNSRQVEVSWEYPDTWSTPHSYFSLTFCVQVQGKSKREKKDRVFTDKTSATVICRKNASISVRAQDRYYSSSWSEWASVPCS
Method: as §2

recombinant human IL23 [14] = target: T3, recombinant human IL23; experiment: cell-based or functional assay; remark: listed apart in the source

T1 sequence (P01375 77-233 limits assumed): as the sequence (P79337 77-233 limits assumed) above, with V37L, T44R, N72T, L138R counted along it
T2 sequence (P01375 whole entry): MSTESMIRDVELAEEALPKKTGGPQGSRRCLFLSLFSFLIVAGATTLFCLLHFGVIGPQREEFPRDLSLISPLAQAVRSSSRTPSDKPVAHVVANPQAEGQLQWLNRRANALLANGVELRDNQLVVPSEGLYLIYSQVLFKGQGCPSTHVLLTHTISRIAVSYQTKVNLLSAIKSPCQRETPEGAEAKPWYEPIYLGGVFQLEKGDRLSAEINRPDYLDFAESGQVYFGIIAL

B1: Compound O (bispecific antibody)
chain 1: not shown
chain 2: EIVLTQSPATLSLSPGERATLSCRASQSVYSYLAWYQQKPGQAPRLLIYDASNRATGIPARFSGSGSGTDFTLTISSLEPEDFAVYYCQQRSNWPPFTFGPGTKVDIKGGGSGGGGQVQLVQSGAEVKKPGSSVKVSCKASGYTFTDQTIHWMRQAPGQGLEWIGYIYPRDDSPKYNENFKGKVTITADKSTSTAYMELSSLRSEDTAVYYCAIPDRSGYAWFIYWGQGTLVTVSSLGGGSGRTVAAPSVFIFPPSDEQLKSGTASVVCLLNNFYPREAKVQWKVDNALQSGNSQESVTEQDSKDSTYSLSSTLTLSKADYEKHKVYACEVTHQGLSSPVTKSFNRGEC
notes: GS linkers, isotype IgG1KO; counterpart of Compound E without YTE; also called Compound 0
L929 TNF Cytotox IC50 (human TNF-alpha [1]): 0.0042 nM
L929 TNF Cytotox IC90 (human TNF-alpha [1]): 0.016 nM
EC50 (membrane bound TNF-alpha [2]): 0.27 nM
TNF-IL8 Whole Blood IC50 (human TNF-alpha [3]): 0.32 nM
TNF-IL8 Whole Blood IC90 (human TNF-alpha [3]): 0.47 nM
EC50 (membrane bound TNF-alpha [4]): 0.77 nM
Dual Phospho DB-pSTAT3 IC50 (recombinant human IL23 [5]): 210 pM
Dual Phospho DB-pSTAT3 IC90 (recombinant human IL23 [5]): 580 pM
Dual Phospho Jurkat-pNf-Kb IC50 (human TNF-alpha [6]): 210 pM
Dual Phospho Jurkat-pNf-Kb IC90 (human TNF-alpha [6]): 740 pM
hIL23 pSTAT3 DB assay IC50 (recombinant human IL23 [7]): 300 pM
hIL23 pSTAT3 DB assay IC90 (recombinant human IL23 [7]): 720 pM
huIL23 MSA IC50 (recombinant human IL23 [8]): 0.21 nM
huIL23 MSA IC90 (recombinant human IL23 [8]): 2.2 nM
CynoIL23 MSA IC50 [9]: 0.12 nM
CynoIL23 MSA IC90 [9]: 0.8 nM
IL23A pSTAT3 (MG) IC50 (recombinant human IL23 [10]): 160 pM
IL23A pSTAT3 (MG) IC90 (recombinant human IL23 [10]): 650 pM
HeLa IL8 Hi-Hu-TNF IC50 (human TNF-alpha [11]): 0.43 nM
HeLa IL8 Hi-Hu-TNF IC90 (human TNF-alpha [11]): 0.76 nM
HeLa IL8 Lo-Hu-TNF IC50 (human TNF-alpha [11]): 0.0099 nM
HeLa IL8 Lo-Hu-TNF IC90 (human TNF-alpha [11]): 0.043 nM
HeLa IL8 Cyno-TNF IC50 (cynomolgus TNF-alpha): 0.3 nM
HeLa IL8 Cyno-TNF IC90 (cynomolgus TNF-alpha): 0.97 nM

B2: Compound E (bispecific antibody)
chain 1: DIQMTQSPSSLSASVGDRVTITCKASRDVAIAVAWYQQKPGKVPKLLIYWASTRHTGVPSRFSGSGSRTDFTLTISSLQPEDVADYFCHQYSSYPFTFGSGTKLEIKGGGSGGGGQVQLVESGGGVVQPGRSLRLSCAASGFIFSSYAMHWVRQAPGNGLEWVAFMSYDGSNKKYADSVKGRFTISRDNSKNTLYLQMNSLRAEDTAVYYCARDRGIAAGGNYYYYGMDVWGQGTTVTVSSLGGGSGASTKGPSVFPLAPSSKSTSGGTAALGCLVKDYFPEPVTVSWNSGALTSGVHTFPAVLQSSGLYSLSSVVTVPSSSLGTQTYICNVNHKPSNTKVDKRVEPKSCDKTHTCPPCPAPEAAGGPSVFLFPPKPKDTLYITREPEVTCVVVDVSHEDPEVKFNWYVDGVEVHNAKTKPREEQYNSTYRVVSVLTVLHQDWLNGKEYKCKVSNKALPAPIEKTISKAKGQPREPQVYTLPPSREEMTKNQVSLTCLVKGFYPSDIAVEWESNGQPENNYKTTPPVLDSDGSFFLYSKLTVDKSRWQQGNVFSCSVMHEALHNHYTQKSLSLSPGK
chain 2: EIVLTQSPATLSLSPGERATLSCRASQSVYSYLAWYQQKPGQAPRLLIYDASNRATGIPARFSGSGSGTDFTLTISSLEPEDFAVYYCQQRSNWPPFTFGPGTKVDIKGGGSGGGGQVQLVQSGAEVKKPGSSVKVSCKASGYTFTDQTIHWMRQAPGQGLEWIGYIYPRDDSPKYNENFKGKVTITADKSTSTAYMELSSLRSEDTAVYYCAIPDRSGYAWFIYWGQGTLVTVSSLGGGSGRTVAAPSVFIFPPSDEQLKSGTASVVCLLNNFYPREAKVQWKVDNALQSGNSQESVTEQDSKDSTYSLSSTLTLSKADYEKHKVYACEVTHQGLSSPVTKSFNRGEC
notes: GS linkers, isotype IgG1KO-YTE
L929 TNF Cytotox IC50 (human TNF-alpha [1]): 0.0041 nM
L929 TNF Cytotox IC90 (human TNF-alpha [1]): 0.017 nM
EC50 (membrane bound TNF-alpha [2]): 0.2 nM
Kd (human TNF-alpha [12]): 0.00411 nM
First test IC50, IL-23-dependent STAT3 activation (luciferase) (recombinant human IL23 [13]): 0.17 nM
GEOMEAN IC50, IL-23-dependent STAT3 activation (luciferase) (recombinant human IL23 [13]): 0.19 nM
GEOMEAN IC90, IL-23-dependent STAT3 activation (luciferase) (recombinant human IL23 [13]): 0.859 nM
Kd (Linked human IL-23): 0.007 nM
TNF-IL8 Whole Blood IC50 (human TNF-alpha [3]): 0.34 nM
TNF-IL8 Whole Blood IC90 (human TNF-alpha [3]): 0.61 nM
EC50 (membrane bound TNF-alpha [4]): 0.45 nM
Dual Phospho DB-pSTAT3 IC50 (recombinant human IL23 [5]): 230 pM
Dual Phospho DB-pSTAT3 IC90 (recombinant human IL23 [5]): 770 pM
Dual Phospho Jurkat-pNf-Kb IC50 (human TNF-alpha [6]): 260 pM
Dual Phospho Jurkat-pNf-Kb IC90 (human TNF-alpha [6]): 340 pM
hIL23 pSTAT3 DB assay IC50 (recombinant human IL23 [7]): 300 pM
hIL23 pSTAT3 DB assay IC90 (recombinant human IL23 [7]): 700 pM
IC50, IL-23-dependent STAT3 activation (DB-STAT3Luc10 luciferase) (recombinant human IL23 [14]): 0.212 nM
IC90, IL-23-dependent STAT3 activation (DB-STAT3Luc10 luciferase) (recombinant human IL23 [14]): 0.965 nM
huIL23 MSA IC50 (recombinant human IL23 [8]): 0.2 nM
huIL23 MSA IC90 (recombinant human IL23 [8]): 1.7 nM
CynoIL23 MSA IC50 [9]: 0.077 nM
CynoIL23 MSA IC90 [9]: 1.2 nM
IL23A pSTAT3 (MG) IC50 (recombinant human IL23 [10]): 140 pM
IL23A pSTAT3 (MG) IC90 (recombinant human IL23 [10]): 830 pM
HeLa IL8 Hi-Hu-TNF IC50 (human TNF-alpha [11]): 0.32 nM
HeLa IL8 Hi-Hu-TNF IC90 (human TNF-alpha [11]): 0.53 nM
HeLa IL8 Lo-Hu-TNF IC50 (human TNF-alpha [11]): 0.0092 nM
HeLa IL8 Lo-Hu-TNF IC90 (human TNF-alpha [11]): 0.035 nM
